Measured values from article PMC7584586.

What was measured:
[1] = target: TfiA, yeast two-hybrid fusion (Helicobacter pylori); assay: two-hybrid; pGBT9 bait and pGAD424 prey in S. cerevisiae PJ69-4A; lacZ reporter, β-galactosidase activity in cell extracts with ONPG
[2] = target: TfiT, yeast two-hybrid fusion (Helicobacter pylori); assay: as above

| Substance | lacZ fold increase relative to the self-activation control of the bait vector [1] | lacZ reporter activity (Miller units) [1] | lacZ fold increase relative to the self-activation control of the bait vector [2] | lacZ reporter activity (Miller units) [2] |
| --- | --- | --- | --- | --- |
| TfiT, yeast two-hybrid fusion (enzyme) | 12.9 fold | 60.8 Miller units |  |  |
| TfiA, yeast two-hybrid fusion (natural protein) | 27.4 fold | 129 Miller units | 47.2 fold | 89.8 Miller units |
